Measured values from the Human Domainome abundance scans (Beltran et al. 2025).

B1: Homeobox protein cut-like 2, residues 895 to 963; numbered along this chain, O14529 (parent)
chain: EVDTLELTRQVKEKLAKNGICQRIFGEKVLGLSQGSVSDMLSRPKPWSKLTQKGREPFIRMQLWLSDQL

Variants of: B1
Assay: abundance fitness (aPCA) (normalised: wild type 0, dead -1); higher = more abundant; growth selection in yeast, the domain comes from the species named
Details: Homo sapiens

Abundance fitness of substitutions, site by site:
E6: Y -0.158 | W -0.173
I24: R -0.093 | F 0.143 | A -0.117 | H 0.007 | W 0.103 | Y 0.097 | G -0.347 | N -0.204 | L 0.033 | K -0.084 | M -0.023 | S -0.084 | E 0.278 | C -0.243 | P -0.934 | D -0.047
Q22: S -0.089 | T -0.151 | W -0.021 | A -0.098 | V -0.116 | H -0.239 | C -0.306 | R -0.062 | E -0.011 | D -0.457 | P -0.073 | K -0.095 | G -0.354 | L -0.003 | N -0.461 | M -0.071 | I -0.223 | F -0.182
L7: E 0.016 | S -0.041 | I -0.058 | K 0.032 | C -0.164 | M 0.055 | A -0.125 | R -0.045 | H -0.246 | Q -0.124 | D -0.074 | N 0.034 | V -0.023 | T -0.077 | P -0.103 | W -0.215 | F -0.141
K12: D -0.025 | H -0.354 | F -0.748 | E -0.348 | M -0.237 | Q -0.358 | R -0.187 | G -0.516 | T -0.271 | V -0.366 | W -0.547 | P -0.244 | S -0.387 | N -0.27 | Y -0.528 | A -0.372
G26: L -0.162 | A 0.082 | M -0.153 | D -0.306 | E -0.397 | C -0.02 | I -0.284 | K -0.207 | F -0.02 | H -0.525 | P -0.219
C21: V -0.174 | A -0.04 | Y -0.41 | G -0.062 | S 0.082 | R -0.087 | F -0.094 | T 0.093 | D -0.103 | P 0.027 | E -0.04 | W -0.104 | N 0.015 | M -0.045 | H -0.029 | I -0.115 | K -0.034
R9: F -0.181 | E -0.1 | Q -0.132 | M 0.006 | C -0.21 | W -0.385 | G -0.129 | L -0.162 | N -0.068 | P -0.137 | D -0.21 | V -0.15 | A -0.044 | K -0.086 | T -0.135 | Y -0.261 | H -0.358 | S -0.16
G19: Y -0.122 | P -0.005 | W -0.341 | I -0.434 | H -0.374 | N -0.007 | L -0.31 | S -0.01 | A -0.32 | E -0.46 | V -0.417 | F -0.226 | Q -0.242 | R 0.032 | K 0.009 | T -0.332
A16: K 0.001 | P -0.18 | C -0.106 | E -0.1 | M -0.048 | D -0.055 | N -0.189 | R 0.036 | F -0.198 | L -0.109 | S 0.008 | T -0.062 | Y -0.234 | I -0.313 | Q -0.063
K14: T 0.077 | F 0.102 | D -0.55 | P -0.208 | H -0.009 | A -0.064 | N -0.249 | G -0.589 | M 0.066 | S -0.154 | Y -0.045 | L 0.009 | R -0.062 | I -0.022 | V -0.03 | Q -0.012 | W -0.094 | E -0.073
K17: M -0.09 | C -0.2 | W -0.269 | L -0.087 | N -0.011 | S -0.208 | A -0.086 | Q 0 | V -0.169 | Y -0.276 | I -0.292 | D -0.175 | H -0.382 | R -0.089 | P -0.411 | G -0.234 | F -0.267
E13: G -0.2 | Q -0.248 | S -0.129 | M -0.008 | P -0.135 | F -0.182 | I -0.139 | H -0.155 | T -0.144 | V -0.235 | A -0.072 | C -0.205 | Y -0.08 | W -0.357 | L -0.138 | R -0.101 | D 0.117 | K -0.101 | N -0.116
F25: C -0.707 | S -0.721 | P -1.05 | M -0.462 | T -0.449 | L -0.351 | K -0.62 | G -0.9 | I -0.711 | V -0.646 | W -0.053 | N -0.803 | R -0.568 | Y -0.779 | A -0.827 | E -0.904
I20: A -0.535 | S -0.342 | D -0.415 | P -0.226 | W -0.11 | Q -0.202 | Y -0.179 | G -0.412 | R -0.409 | E -0.575 | N -0.453 | K -0.32 | F -0.058 | C -0.269 | V -0.201 | M -0.023 | H -0.382
T8: S -0.115 | A -0.064 | P -0.185 | Y -0.309 | D -0.214 | I -0.107 | V 0.041 | H -0.19 | R -0.136 | G -0.204 | N -0.158 | L -0.157 | C -0.022 | W -0.206 | K -0.063 | Q -0.333 | F -0.143 | E -0.242
R23: T -0.155 | N 0.038 | S -0.101 | Q -0.079 | D -0.042 | W -0.154 | H -0.094 | K 0.047 | I -0.192 | C -0.317 | E 0.068 | L -0.203 | P -0.627 | A -0.106 | G -0.103 | F -0.009 | M -0.207 | V -0.162
L15: F -0.157 | R -0.069 | W -0.338 | A 0.038 | V -0.154 | M 0.053 | C -0.123 | T -0.343 | Y -0.124 | I -0.084 | K 0.029 | D -0.211 | G -0.113 | S -0.087 | N -0.184
N18: E 0.045 | C -0.354 | D -0.153 | K 0.04 | R 0.013 | I -0.101 | V -0.075 | W -0.102 | T 0.022 | A -0.119 | H 0.001 | F -0.065 | L 0.115 | G -0.098 | Q -0.016 | Y -0.128
V11: H -0.23 | L -0.27 | G -0.146 | M -0.162 | W -0.313 | E -0.192 | K -0.081 | R -0.125 | D -0.065 | P -0.141 | S -0.166 | C -0.465 | Q -0.218 | F -0.239 | N -0.153 | T -0.171 | A -0.224 | Y -0.326 | I -0.18
Q10: D 0.005 | N -0.128 | C -0.343 | E -0.214 | L -0.018 | H -0.228 | P -0.158 | A -0.23 | F -0.244 | Y -0.313 | R -0.038 | S -0.155 | M 0.082 | V -0.164 | K 0.07
